{
  "source": "paper PMC7790460",
  "about": "“An RNA Repair Operon Regulated by Damaged tRNAs”",
  "key": {"[1]": {"target": "RtcR transcriptional activator (full-length S. Typhimurium RtcR) (S. Typhimurium)", "assay": "SEC; RtcR (48 uM) mixed with 48 uM refolded 5' tRNA-Leu(UAG) halves ending in 2',3'-cyclic phosphate; Superdex 200 Increase 10/300; 20 mM Tris-HCl pH 7.5, 100 mM NaCl, 1 mM MgCl2, 2% glycerol, 0.5% Tween 20, 1 mM ATP; peaks analysed by SDS-PAGE and denaturing gels"}, "RtcR (full-length)": {"target": "T1, RtcR (full-length) (Salmonella enterica serovar Typhimurium …, UniProt Q8ZLH7 1-527)", "T1 sequence": "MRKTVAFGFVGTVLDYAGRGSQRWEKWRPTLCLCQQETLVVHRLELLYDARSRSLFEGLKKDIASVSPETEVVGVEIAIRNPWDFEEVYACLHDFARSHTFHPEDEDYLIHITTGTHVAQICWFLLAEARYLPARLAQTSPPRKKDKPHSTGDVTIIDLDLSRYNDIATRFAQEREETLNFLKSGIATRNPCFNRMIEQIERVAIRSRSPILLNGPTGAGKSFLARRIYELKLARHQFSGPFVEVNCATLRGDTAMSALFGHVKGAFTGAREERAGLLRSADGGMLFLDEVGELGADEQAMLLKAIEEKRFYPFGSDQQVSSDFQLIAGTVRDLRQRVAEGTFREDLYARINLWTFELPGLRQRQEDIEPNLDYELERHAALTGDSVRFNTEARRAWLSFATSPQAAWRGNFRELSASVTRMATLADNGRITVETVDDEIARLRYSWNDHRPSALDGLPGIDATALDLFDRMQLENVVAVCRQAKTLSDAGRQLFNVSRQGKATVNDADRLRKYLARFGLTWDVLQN", "assay": "EMSA; 1 mM ATP; 20 mM Tris-HCl pH 7.5, 50 mM NaCl, 1 mM MgCl2, 0.05% Tween 20; 1 mM ATP for RtcR; 30 min at 4 C then 30 min at room temperature; RNA 1 nM", "conditions": "protein: recombinant; chain copies: 2; label: 5'-32P (EMSA)"}, "RtcR CARF domain": {"target": "T2, RtcR CARF domain (Salmonella enterica serovar Typhimurium …, UniProt Q8ZLH7 1-188)", "T2 sequence": "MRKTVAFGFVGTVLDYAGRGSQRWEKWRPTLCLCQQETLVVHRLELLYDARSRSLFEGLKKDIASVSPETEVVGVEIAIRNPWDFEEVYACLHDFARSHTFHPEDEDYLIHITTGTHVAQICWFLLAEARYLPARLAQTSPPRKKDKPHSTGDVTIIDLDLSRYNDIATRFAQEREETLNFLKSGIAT", "assay": "EMSA; 20 mM Tris-HCl pH 7.5, 50 mM NaCl, 1 mM MgCl2, 0.05% Tween 20; 1 mM ATP for RtcR; 30 min at 4 C then 30 min at room temperature; RNA 1 nM", "conditions": "protein: recombinant; chain copies: 2; label: 5'-32P (EMSA)"}},
  "note": "Several values for one entry are separate records, joined by “and”; a condition that tells them apart may be missing. Equal values may be shown once.",
  "data": [
    {"molecule": "RtcR transcriptional activator (full-length S. Typhimurium RtcR) (natural protein)", "values": [
      {"measurement": "stoichiometry N", "setting": "[1]", "result": "6 and 2"}
    ]},
    {"molecule": "GCGGGAGUGGCGAAAUUGGUAGACGCACCAGAUUUAG (structured_RNA, 2',3'-cyclic phosphate 3' end)", "note": "[tRNALeu(UAG) 5' half, after G of anticodon, cyclic phosphate]", "values": [
      {"measurement": "apparent K (half saturation)", "setting": "RtcR (full-length)", "result": "~125", "unit": "nM"},
      {"measurement": "apparent K (half saturation)", "setting": "RtcR CARF domain", "result": "~200", "unit": "nM"}
    ]},
    {"molecule": "GCGGGAGUGGCGAAAUUGGUAGACGCACCAGAUUUAG (structured_RNA, 3'-phosphate)", "note": "[tRNALeu(UAG) 5' half, after G of anticodon, 3'-phosphate]", "values": [
      {"measurement": "binding result", "setting": "RtcR CARF domain", "result": "no binding"}
    ]}
  ]
}
